Test results taken from the DeepSol protein solubility set.

Assay: soluble on expression in E. coli; label from the status in PepcDB or PDB records

Soluble on expression in E. coli, not soluble:
MGSDKIHHHHHHMLHQANRTGASTRVEFILPDSIEGYIPLKADLHLHTYFSDGHLSPSARVREAWLDGLDAISVTDHIEYHPADTDMIGYLGATLPDGIEAHNVNKKTNVKPKQDLNKSVELTKKAAVSYGLLIIPGIEITREPKGIGHYNALFTTDNNGIYDPDPLTAIRNAKAQGALVMHNHPGWRRESIQHPDFELKAYGEGLIDGIEANNGTAFCPGTIDRAKEDNLFVASTTDLHDTSFEEYIGRGLRRDMTIILAKDRSLDAMRDALENRRTIGYGAGGTLMGQEYLLRQLFMSCVSISPVNGHNIQLKNPTSLRFIIHPDGKNPIVLPEFSSIILSDKDRGFSVDNAWTGADSFLRISL
MGSDKIHHHHHHMLITFNFEVHQPHRLNKEINQNGNTLWEKYVDTKLNKEVFNKVANKCYIPTNELILELIDEYDFKVNYSITGVFVEQALEFNDYVLDLFKDLVKTGNVELIAETYHHSLTSLFETEDEFIEDIEMHRKMYKEIFGFKAKVFRNTELIYNNRIAKIAKDLGFKAIFTEGIEKILGWRSPNYLYQSPDGMKILLRNYRLSDDIGFRFSARDWDQYPLTADKYAIWLASTPGEVINIYMDYETFGEHHWKETGIFEFLRYLPIEIAKHEHLEVVNVSEVVDRLEPRGEIYVHEFATISWADTERDVSAWLGNKMQRISFEKLKDIGKFIKENSNKLKKLNKFDEIYKMYKVLQTSDNLYYQSIKGLSDMSVHNYFSHFDTPFDAYASYLNILYDFEYYIKELLAKSEFDKNNRRKDGQKQYEKDDEVKKESLINTNIIVAKDDKTESIYIEDEEGKKNKRYERDEGFIIA
MGSDKIHHHHHHMLKLKKILADLHVEQAELAEQMAYSQATISQLVNHSVWPKRAARWGLRERILKFLKERGANDDQVATAFEEWTPTRGNASESGSHTPTGGTEDEAMSIRKQILHPNTRRHFKLPGDPFEEVASAEEFYQNEHIRFTRAAMLDAAKRGGFLAVVGESGSGKTTMRRDLQERIERESIQVQVIRPYVVAMEDNDDKGKTLKATHIAEAIMAAVAPHEVLKTSSEARFRQVEKALKESYRTGMRHVVLIEEAHAMPLATLRHLKRFIELEDGFTRLLSVILIGQTELAIKLNPKNATVREVVQRCELITLPPLGQYLEDYLKFRFARLGVQLDQMVTLDGVQAIRSRLQPEAPRGHEERSFLYPLAVHNLLTAAMNLAAENGAPAVSADIVMEAKWN
MGSDKIHHHHHHMLKNDRWITEQAAAGMLEPFQAGLIRHLDPEQHQRPVLSFGCSSFGYDLRLSAKEFLIFRHVPGTVMNPKRFNPANLESTPLHQDEDGEYFILPAHSYGLGVALEKMKVPSNITVICLGKSTYARLGIIVNTTPAEASWEGHLTLEFSNSSGADCRIYANEGICQLLFFEGDPCDTTYSDRQGKYQHQPERVTLARI
MGSDKIHHHHHHMLKRKIETFLAKWKKSEDRKPLVIKGIRQCGKTYIVQKFAKENYESVVYMNFILEPDKKSAFTGNIDVDTIILNLSALIQGSRFINGKTCIILDEIQECKEARTALKSFHIDGRFDVIATGSLLGVKGYDKSKKKKEEEEGQDSVPVGYETVIDMYPLDFEEFLWANGISDMVIDSVKSCFENESTVPDGIHKAMMELLYRYVIVGGLPEVVNCFLETKNIELIYKVQRNLIAEYEEDMVKYADDPDKPRIRECFESIPKQLAKENKKFQYSVVKKGGRASQYIGSIQWLEDAGIVRRCYNTQITELPLEGNSIKGSFKVYTTDIGILMAMLDYGTQADILKGNLLGYKGAIFENLMADFLCKSGQKLYYFHKDSGLELDFLVRFKGECVILEVKAKTGKAKSMTTVLKNKDVYYVNNAIKLGQYNVGCEGDILTIPLYMGFLVEDKLADVIIPDVDVSLLTTI
MGSDKIHHHHHHMLLILDEYFKEHPIKLRIVDGLYTSGISIRNGRFFTNDVEISVSEIASAFNVNRKTVYETIKLVESNDSLRRVMSSIKPMADIADVALLTGNQIITAYTTLGHFPYVFKEIFNTISKYGCYIREVFSRNMSQEESFIRIIFYRPIPDRIIGQIRKIDGVKSLEVRVNMDTDQILCNNCDIKICPTKYISDVEKEELGDL
MGSDKIHHHHHHMLLLEVKNVSKSYGDTEVLKNVSFELNEGDVMGVLGRSGAGKSVLLHMLRGMEGYEPTSGQIIYHVAYCPHCENVEAPSQVGKKCECETEYVAKSVDFWNNNEITYALKKKIAIMLQRTFALYGEKTVAENIMEALTAAGYEGKDATEWALNLIKMVKLEHRVAHISRDLSGGEKQRVVLARQIAKNPVIFLADEPTGTLDPKTAKFVHNALTEAVIKHNIAMVITSHWPEVIEELCQKAIWLDKGEMRLVGESKHVVEEFMKTVTSMKEFEKVEVKDELLKLENVEKRYVSVDRGIVKAVDGIDVSINEKEIFGLVGVSGAGKTTLSKIIAAVIPPSKGNYEFRLADEWVDMTKVGPLYRGRAKRYIGMLFQEYSLYPHRTILYNLTESIGLEMPGEFAKMKAEHTLVSVGFTEEEAENMLEKHPSELSVGEKHRVALAQVLIREPHLILLDEPTGTMDPITRNQVAESIQKSRSELDQTYVIVSHDMDFVLNVCDRAALVRGGKIIKTGKPDEIVKILSEEEKDEMIGH
MGSDKIHHHHHHMLLQRSTWPEVEAYLQQSDGIIIPIGSTEQHGPTGLIGTDAICAEAIAQGVADRTQALVGPTINVGMALHHLGFPGSVSLRPSTLLQVIVDYLSSLAQHGFRHFYFINGHGGNIATVRAAFAEFYAVAGDRRCPEPDRLRCHLANWFMVPAVTKLARELYGDEEGSHATPSEVALTQFIYPDSIKTAPLTVEVHSSHAIYAADDFRRRYPDGRMGSNPALATPEHGQQFYESAVAELSQSYQAFLAAD
MGSDKIHHHHHHMLNYHHLRYFWIVAHEGNLTRAARKHNIAQSALSMQISALEEYLGQPLFERAGRRLVLTEAGHIALDFADAIFAKGDELLGTFGRLAEAHQKVLRVGALATLSRNFQVGFLRPLFADPEITVIVRSGTLDELLGSLKLYDLDIVLATGVPNRDHATPWIVHIIDTQPVGLIGQPRSDRYQQPLEVLLQREPLIVPSPESTIRTGFDALVHRLGIRPRIVAEIDDMAMMRLVAREHNGLAVIPPIVVTDELRSGMLVEYAELPELVETFCAITMPRRFPNPLLRLVLPGHTTPE
MGSDKIHHHHHHMLSDITVRYKLNNSIKDSRFETEHLAKYHLSFQVNFELFRICIVDGDSNRCLFLEDYTLADIYTTNDLLEQLDILFEDHILIKAGFWKSITVGFKNTQFSLIPEALFEKDYLKEYLTLNTTLDREPDEEYHFYKQRQTEAVNVFATNQRLTSWFNKTYPLKQVRYVHHTASMIEGIMLQKDKNAAEKSVFIQVEQYFLTIIVKQGKKLIFCNSFTFNTSEDFVYFILFVFDQLELNPEKCPVVVFGEITHDSESFSKLYKYIRHLTFGSKPEFVRFGYQFDEVFDHRYFDLYNMHLCQG
MGSDKIHHHHHHMLSKLWKRQAPQMVGIDIGSHEIKAILLSKTADGYKIQNHASVPVRKGAVVDHDIRDTEAVIESLRQIRRGLPKSLKFAAVAVSGSAVMTKVIYMDAALNEEEMEAQIEIEADNLIPYSLDEVSIDFERLNPNITDPTKVNVLLSACRTENIDSRVDSLDAIELDVKVVDVEAYALGRSAELIYAQLPDGAKAKSIAMVDIGANMTTFSVVENGDTTFIREQAFGGELFTQSIVSFYGMPHDEAERAKISGQLPRNYMFEVLSPFQMQLLQQIKRTLQIYCTASGREKVDYIVLCGGTAKLEGMVELLTNELGTHTIVADPFQGCLHADDVMKGQLQPNISKYMVACGLALRSYAQWRT
MGSDKIHHHHHHMLSRTADHLFWMSRYTERAENTARMLNVSYETSLLPQSADVAQESWLGLLSISELIPAYTARHGEVTREGVLEFMVRDGDNPSSILSCLRAARENARAVRGALTTEIWETQNQTWLELHRQLQGRDFERDPGAFFEWVKYRSHLSRGVTLGTMLQDEAFHFLRLGTFLERADNTARLLDVKFHAVQSDFHGSAMRERGRAAPQEFDFYHWSAILRSVSAFEVYRKVYRDVITPERVADLLMLRADMPRSLHASLREVADNLAVVANDQSAETQRKAGRLLADLRYGRIDEILATGLHAYLTQFLDRVNDLGAGISRDFLVPVPA
MGSDKIHHHHHHMLTCDVFFASKNKKGEEVCGDSIKVKRESEKIVVSVSDGLGSGIKASILSTLTATIASTMLMNGLPVTDVFRTILATLPICRVRKISYSNLCSVVCDFKNNTCTVVEYEFPVVMLFKGERRVFPEKQGLEIEGKKVFVWQFRSEAGTLLLLATDGLSQAGMGTDLFPLGFGVENIEKEMKHLLKNHVSPENIVRHFVKLAEKLDQEVRGDDTLVACLNFREKRILNLFVGPPEDRKKDEEYVRTFLSLPGKKIVCGGTTGQIFERVTGKKVEIDLYTLSENSPPVGYMEGIDLMTEGIVTLTQVFRYLEGQSEELGYGAKFIVKSLLEADEINFFVGRAINPAHQNPLFSHDISLKFRLVKDIAQILREKGKIVNVQYC
MGSDKIHHHHHHMLYTENLQSLIDSGKGYNVEFKVRVPSKVRELTEEICAFANADGGYLLIGVDDNGQVVDTNLENDKRSAIQGSISEISPALHCELYSVNVGNKTVWVIDVPSGKDKPYIFSGSIYVREGANSQKLRTAEEMRSFFQECNKIFFDHIPCHWFNIYTDADEQMIKGFRTEAKLSPSTPDKQIFENLELFIENGTAKNGAAMFFGKQPERKFPHAVTRCVLFKGTNKVYIIDDKTFGGSLYQQYLQAMSWLESKLQVAYKIEGAGPREEIWEIPLTVFKEAIINALSHRDYYEQGASIMIEMFDDRVEISNPGGLLPVVAKDFGHKSMTRNPLIFGLFTRMHLVERVASGIPRMQEAMREANLPEPEFHTEGMFTVVFKRKNTNSANRDIVNGIINGIVNENEQTILNLLKAKPGLNASEVAESLSKSWRTTMRYLKSLNDKGLVEFRGAPKTGGYYLTRNI
MGSDKIHHHHHHMMNNLKRILKNPRLILIFILSRYCHWIDDKTYLCIMYFIYFGKLLHLNSPRTFNEKLQWLKLYDRHPEYTQMVDKATVKEYVASIIGEKYIIPTLGVWENFDDIDFENIPSSFVLKCTHDSGGVVICENKNLFDVEKARSKLLKSMKKNYYYVGREYPYKDIKPRIIAEKYMVDESHIELKDYKIHLFHGIPNFIQVDFDRFTSHHRNLYTIDWKPLGKAIKYPAVYEREIDKPIVLDEMLELAMKLAFNIPYVRADFYCIGNKVYFGELTFYHGSGFETFSPKSFDEELGALIKLS
MGSDKIHHHHHHMMQPVINAPEIATAREQQLFNGKNFHVFIYNKTESISGLHQHDYYEFTLVLTGRYFQEINGKRVLLERGDFVFIPLGSHHQSFYEFGATRILNVGISKRFFEQHYLPLLPYCFVASQVYRTNNAFLTYVETVISSLNFRETGLEEFVEMVTFYVINRLRHYREEQVIDDVPQWLKSTVEKMHDKEQFSESALENMVALSAKSQEYLTRATQRYYGKTPMQIINEIRINFAKKQLEMTNYSVTDIAFEAGYSSPSLFIKTFKKLTSFTPKSYRKKLTEFNQ
MGSDKIHHHHHHMMRNIAICSNEVENLILGQDSVKTIDMNGILVRCGLLRTENIYFDRNAVSNRFKVLVKKKAFSCNYRDKSIIFRITKQAPENTFYVVGSDFVGEVIATGSEVTELKVGDRVIANNAYPESDALEAFPGIPSNHASKEYQVFHQAKLIKIPLEMSDEIAAAFSIGGQTSYSIVRKFNPTKGSNILVTAAKSNTSLFVINALKKYDVNIYATSTSRLFEEELRAMGVKKVILVESKPNSLLENQSIQNIVAETGGFDCVFDPFFDLYLGQSVELMKIGAKYITCGLYDQYFELINQSFTPFSLNTNHIMGSVMTKNLQIIGNCLGLTEDLKNAIQDYALGHLNVVIDSVFTGKDIEGFFERTYNAKDRFGKVVYKYE
